One test has as its target CDK2 kinase complex (cyclin not given) (UniProt P24941). The test can be described thus: cell-based or functional assay.
With “GST-16E7 (16-38) (from UniProt P08515 1-218; P03129 16-38)”, the induced kinase activity, percent of that by full length E7 turned out to be 53%. “GST-16E7(1-15) (from UniProt P03129 1-15)”: the relative kinase activity compared to full length E7 was 15%. As for “GST-16E7(1-27) (from UniProt P03129 1-27)”, the CDK2 activation, percent of that of full length E7 (one experiment) came out at 28.6% and the CDK2 activation, percent of that of full length E7 (repeat experiment) amounted to 52%. Turning to “GST-16E7(1-38) (from UniProt P03129 1-38)”, the relative kinase activity compared to activity in the presence of full length E7 amounted to 72%. As to “GST-16E7(1-48) (from UniProt P03129 1-48)”, the relative kinase activity compared to activity in the presence of full length E7 was determined as 73.2%. The same measure, in the same setting: then “GST-16E7(1-69) (from UniProt P03129 1-69)”, with 82.5%.

Turning to “GST-16E7(1-87) (from UniProt P03129 1-87)”, the relative kinase activity compared to activity in the presence of full length E7 was 76.7%. Take “GST-E7 (20-48) (from UniProt P03129 20-48)”: the induced kinase activity, percent of that by full length E7 came out at 33%.

“GST-HPV16 E7 ?9-13 (from UniProt P03129 1-8; P03129 14-98)” gave a % Control Activation of CDK2 of 90%. “GST-HPV16 E7 ?9-13, ?A34-37 (from UniProt P03129 1-8; P03129 14-33; P03129 38-98)” had a % Control Activation of CDK2 of 72%. Regarding “GST-HPV16 E7 ?12; ?24, 26 (from UniProt P03129 1-98)”, the % Control Activation of CDK2, Exp. 1 amounted to 85.2% and the % Control Activation of CDK2, Exp. 2 is 93.5%. The substance “GST-HPV16 E7 ?12; ?24, 26; ?31, 32 (from UniProt P03129 1-98)” registered a % Control Activation of CDK2, Exp. 2 of 83.1%. As to “GST-HPV16 E7 ?13-15 (from UniProt P03129 1-12; P03129 16-98)”, the % Control Activation of CDK2 was determined as 76%.

In turn, “GST-HPV16 E7 ?22-26 (from UniProt P03129 1-21; P03129 27-98)” registered a % Control Activation of CDK2 of 85%. For the substance “GST-HPV16 E7 ?22-26, ?31-37 (from UniProt P03129 1-21; P03129 27-30; P03129 38-98)”, the % Control Activation of CDK2 came to 72%. For “GST-HPV16 E7 ?24, 26; ?31, 32 (from UniProt P03129 1-98)”, the % Control Activation of CDK2, Exp. 1 came to 88.2% and the % Control Activation of CDK2, Exp. 2 was 95.6%. Substance “GST-HPV16 E7 ?24, 26; ?31, 32; ?91 (from UniProt P03129 1-98)” had a % Control Activation of CDK2, Exp. 2 of 70.6%.

Regarding “GST-HPV16 E7 ?24, 26; ?91 (from UniProt P03129 1-98)”, the % Control Activation of CDK2, Exp. 1 worked out at 69.4% and the % Control Activation of CDK2, Exp. 2 came out at 86.4%.

Turning to “GST-HPV16 E7 ?31-37 (from UniProt P03129 1-30; P03129 38-98)”, the % Control Activation of CDK2 was 80%. Take “GST-HPV16 E7 ?34-37 (from UniProt P03129 1-33; P03129 38-98)”: the % Control Activation of CDK2 turned out to be 80%. “GST-HPV16 E7 C24, E26→S24, D26 (from UniProt P03129 1-98)” yielded a % Control Activation of CDK2, Exp. 1 of 86.7% and a % Control Activation of CDK2, Exp. 2 of 81.3%. “GST-HPV16 E7 C91→W91 (from UniProt P03129 1-98)” gave a % Control Activation of CDK2, Exp. 1 of 81.7% and a % Control Activation of CDK2, Exp. 2 of 78.7%. “GST-HPV16 E7 M12→L12 (from UniProt P03129 1-98)” registered a % Control Activation of CDK2, Exp. 1 of 96.7%. Same read-out and setting: the figure for “GST-HPV16 E7 S31, S32→G31, G32 (from UniProt P03129 1-98)” is 77.1%.

The next test deals with cyclin A/CDK2 complex (UniProt P20248). The test can be described thus: cell-based or functional assay.
“GST-HPV16-E7(9-98) (from UniProt P03129 9-98)” returned an activation of cyclinA/CDK2, percent of full length E7 of 64%. Turning to “GST-HPV16-E7(16-98) (from UniProt P03129 16-98)”, the activation of cyclinA/CDK2, percent of full length E7 is 53%. “GST-HPV16-E7(39-98) (from UniProt P03129 39-98)” had an activation of cyclinA/CDK2, percent of full length E7 (repeat experiment) of 18% and an activation of cyclinA/CDK2, percent of full length GST-HPV 16 E7 of 28.6%.

Source of the values: patent US20010029022A1.
